Source: paper PMC6224480, “Insights into Kinesin-1 Activation from the Crystal Structure of KLC2 Bound to JIP3” (Structure(London, England:1993), 2018)

Tests used:
[1] = system: KLC2^TPR-myc Arg^312Glu (R312E); assay: ITC of Trp-JIP3^LZ into R312E KLC2^TPR-myc; assay type: binding, murine
Source text: The KLC2^TPR construct used in this work comprised murine KLC2 residues 191-480, which is similar to those used in previous studies ([Nguyen et al., 2017], [Zhu et al., 2012]) but with a slightly longer N-terminal region to include residues 191-194, which are very highly conserved in Bilaterian KLCs. To construct the pMW-His6-SUMO-KLC2^TPR vector, the sequence encoding KLC2^TPR (residues 191-480) was amplified by PCR from a murine template ([Dodding et al., 2011]) and cloned into the NotI/EcoRI sites of pMW his-SUMO. […]
The Trp-JIP3^LZ protein used for CD and ITC experiments was prepared as described above for the JIP3^LZ, with the following modifications. […] The Trp-JIP3^LZ and KLC2^TPR-myc samples used in the fluorescence anisotropy-based binding competition assays were prepared as for those used in the CD and ITC studies, but the final size-exclusion step was performed in 100 mM NaCl, 25 mM HEPES, 5mM MgCl2, 1 mM TCEP (final pH 7.5).
(§1) To study binding of the Trp-JIP3^LZ and FITC-CSTN-WD2 peptide to wild-type and mutant KLC2^TPR-myc, the recombinant proteins were prepared by size exclusion chromatography in 0.1 M NaCl, 25 mM HEPES, 1 mM TCEP, final pH 7.5. […] The peptide concentration was determined by measuring the absorbance at 483 nm and using a molar extinction coefficient of 68,000 M^-1cm^-1. […] The resulting isotherms were analysed in SEDPHAT. […]

CD spectroscopy = assay type: physicochemical; details: 20°C, 20 mM potassium phosphate pH 7.5, 0.5 mM DTT
Procedure: All CD spectra were recorded on a Chirascan CD spectrometer (Applied Photophysics) in quartz cuvettes with a 0.1 cm path length. Data were recorded at 20°C between 260 - 180 nm in 1 nm increments and a 2 nm bandwidth over an average of two scans. The KLC2^TPR-myc and Trp-JIP3^LZ proteins were dialysed extensively into 20 mM potassium phosphate pH 7.5, 0.5 mM DTT. Spectra were collected from KLC2^TPR-myc samples at concentrations of 0.29, 0.14 and 0.086 mg/ml. Trp-JIP3^LZ spectra were collected at 0.15, 0.074 and 0.044 mg/ml. One spectrum was recorded for each sample at each concentration and background-corrected by subtraction of a buffer-only spectrum. Corrected spectra were converted to units of mean residue ellipticity and deconvolved using the Dichroweb server ([Whitmore and Wallace, 2008]). KLC2^TPR-myc and Trp-JIP3^LZ spectra were analysed using the SELCON3 and CONTIN algorithms, respectively, using reference dataset set 4 ([Sreerama et al., 1999], [van Stokkum et al., 1990]). For each protein, the mean percentage of each secondary structure type, and the corresponding standard deviation, was calculated from the values obtained from the three concentrations. The secondary structure content for KLC2^TPR-myc and Trp-JIP3^LZ were calculated using the KLC2^TPR:JIP3^LZ crystal structure using the STRIDE server (http://webclu.bio.wzw.tum.de/cgi-bin/stride/stridecgi.py) ([Frishman and Argos, 1995]).

KLC2^TPR-myc = target: T1, KLC2^TPR-myc (Mus musculus, UniProt O88448); assay: Fluorescence anisotropy-based binding competition against FITC-LFP motif peptide; parameters: species or system murine; details: FITC-LFP peptide 300 nM, KLC2^TPR-myc 21 μM, Trp-JIP3^LZ two independent experiments, CSTN-WD1 one experiment
T1 construct: comprised murine KLC2 residues 191-480; His6-SUMO (N, cleaved yes); made in house; host or cells: E. coli BL21(DE3) Rosetta
T1 sequence (O88448 191-480): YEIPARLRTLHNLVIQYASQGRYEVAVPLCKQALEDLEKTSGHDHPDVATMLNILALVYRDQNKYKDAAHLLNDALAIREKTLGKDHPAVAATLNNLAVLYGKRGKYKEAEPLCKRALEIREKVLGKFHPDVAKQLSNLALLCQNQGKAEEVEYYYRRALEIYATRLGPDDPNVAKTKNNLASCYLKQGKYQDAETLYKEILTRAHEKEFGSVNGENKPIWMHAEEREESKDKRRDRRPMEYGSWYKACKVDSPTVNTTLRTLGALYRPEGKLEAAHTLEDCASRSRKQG
Source text: Kinesin-1 activation by JIP3 requires JIP3^LZ binding to KLC^TPR ([Watt et al., 2015]). How does JIP3^LZ binding to the KLC^TPR relieve KLC regulation of the kinesin-1 molecule? Tryptophan-acidic cargoes activate kinesin-1 by releasing the KLC LFP motif from the KLC^TPR ([Yip et al., 2016]). […] We therefore wondered whether JIP3^LZ binding to the KLC2^TPR allosterically regulates interactions between KLC2^TPR and the LFP motif. We investigated this using an in vitro, fluorescence anisotropy-based binding competition assay with purified proteins and peptides ([Yip et al., 2016]). […] Thus, JIP3 activates kinesin-1 by a different mechanism to tryptophan-acidic cargoes.
The binding affinity between the FITC-labelled LFP-motif peptide and the KLC2^TPR-myc was measured essentially as described previously ([Yip et al., 2016]). FITC-labelled LFP motif peptide (300 nM) was incubated with 2-fold dilutions of KLC2^TPR-myc in assay buffer (0.1 M NaCl, 25 mM HEPES, 5 mM MgCl2, 1 mM TCEP, final pH 7.5) in triplicate in 384-well plates, for 1 hour at room temperature. Fluorescence measurements were recorded on a TecanSpark plate reader at excitation and emission wavelengths of 488 nm and 535 nm respectively. Fluorescence anisotropy values were calculated at each KLC2^TPR-myc concentration and the data were fitted with a fixed-slope dose response curve in Prism (GraphPad). […]

[2] = system: wild-type and mutant KLC2^TPR-myc; assay: ITC with wild-type and/or TPR1-mutant KLC2^TPR-myc (collective statements); assay type: binding, murine; details: all three mutations in TPR1 of KLC2^TPR-myc; ITC
Procedure: The Trp-JIP3^LZ protein used for CD and ITC experiments was prepared as described above for the JIP3^LZ, with the following modifications. Following 3C cleavage, contaminating GST3C was removed by incubation of the eluate with fresh, pre-equilibrated glutathione sepharose 4B resin for 2 hours at room temperature. The Trp-JIP3^LZ was then further purified by size exclusion chromatography using a Superdex 75 16/600 column equilibrated in 100 mM NaCl, 25 mM HEPES, 1 mM TCEP (final pH 7.5). Wild-type/mutant KLC2^TPR-myc samples used for CD and ITC experiments were prepared as described above the KLC2^TPR used in crystallographic studies. The Trp-JIP3^LZ and KLC2^TPR-myc samples used in the fluorescence anisotropy-based binding competition assays were prepared as for those used in the CD and ITC studies, but the final size-exclusion step was performed in 100 mM NaCl, 25 mM HEPES, 5mM MgCl2, 1 mM TCEP (final pH 7.5).
as §1

B1: Trp-JIP3^LZ: JIP3^LZ construct N-terminally fused to a tryptophan residue (protein)
chain: WMGKEVGNLLLENSQLLETKNALNVVKNDLIAKVDQLSGEQEVLKGELEAAKQAKVKLENRIKELEEELKRV
modifications: left off: GST, N-terminal, cleaved
notes: JIP3^LZ construct N-terminally fused to a tryptophan residue
binding to Arg^312Glu mutant [1]: retained the ability to bind | mean α-helical content (CD spectroscopy; CONTIN deconvolution, mean and SD from three concentrations (0.15, 0.074, 0.044 mg/ml)): 59% ± 3% | ratio of ellipticities at 222 and 208 nm (CD spectroscopy; n = 3): 0.88 ± 0.01 | effect on binding of KLC2^TPR-myc to FITC-labeled LFP motif peptide (KLC2^TPR-myc): no effect | effect of the three TPR1 mutations on binding [2]: completely abrogated binding
